This is an account of results in patent US8076087B2, “Galectin sequences and compositions and methods utilizing same for treating or diagnosing arthritis and other chronic inflammatory diseases” (Medical Research Fund of Tel Aviv Souraskv Medical Center, priority 2002, dated 2011).

In test [1] the test system is human fibroblasts from OA patients. The test can be described thus: Apoptosis induction, annexin V/PI flow cytometry, OA fibroblasts. Type of test: cell-based. The following applies: for total cell population in the apoptotic area: 24 h, no-addition control 39.5%. As for the experimental part: (§1) The assay was performed by Phosphatidyl Serine Detection Kit (IOP-116F FITC-conjugated, IQ Products, The Netherlands) using the manufacturer instructions. Human fibroblast cells from OA patients, synovial fluid cells and PBLs from RA and other arthritic patients were incubated with increasing concentrations of galectin-8 variants 1 and 2 (50-2000 ng/ml). Specific binding of annexin V was performed by the incubation of cells for 20 minutes on ice in a binding calcium buffer containing a saturating concentration of annexin V-fluorescein isothiocyanate (FITC) and propdium iodide (PI). After incubation, the cells were pelleted, and analyzed in FACS analyzer (Beckton Dickinson, San Jose, Calif.). Annexin V^+/PI^+ cells were defined as necrotic, while annexin V^+/PI^− cells were defined as apoptotic. The percent of the apoptotic cells of the total cells was determined.
For orientation: A flow cytometer gives signals particle by particle.

For test [2], the system named is TNFα. Kind of test: TNFα levels in media of LPS-supplemented human synovial tissue / cell cultures, sandwich enzyme immunoassay. It is filed as cell-based. The following applies: LPS 3 μg/ml, 50-2000 ng/ml, 48 hours. The method, then: Specimen Selection and Culture Conditions: Synovial tissues were obtained from patients undergoing total knee or hip replacement for osteoarthritis (OA). Within 2 hours of removal, synovial tissues were cut into small pieces, of a few millimeters in diameter. Synovial fibroblasts were cultured in 2 ml RPMI 1640 supplemented with 2 mM L-glutamine, 100 U/ml penicillin and 100 μg/ml streptomycin sulphate (Biological Industries).
(§2) Inflammatory cells and PBLs derived from joints of rheumatoid arthritic (RA) patients were cultured individually [RPMI-1640 (Sigma, Israel)]. The murine fibroblast line, NIH 3T3, was used as a control. The recombinant galectin-8 peptide (r-galectin-8) was added to the culture medium of the synovial fibroblasts at a concentration of 0.125 μM, 0.25 μM, 0.5 μM and 1 μM) together with lipopolysaccharide (LPS, 3 μg/ml). The recombinant galectin-8 peptide variants (r-galectin-8 variant 1 and r-galectin-8 variant 2) were added to all the culture mediums in the following concentrations: 50 ng/ml, 125 ng/ml, 250 ng/ml, 500 ng/ml, 750 ng/ml, 1 μg/ml and 2 μg/ml together with lipopolysaccharide (LPS, 3 μg/ml). Following 48 hours of incubation (37° C., 5% CO2), the measurement of IL-1β, TNF-α and IL-1ra production was performed in supernatants by quantitative sandwich enzyme immunoassay technique (R&D Systems, Inc., USA). Detection limits were 1 pg/ml to 14 pg/ml. IL-1ra production was tested with and without the addition of lipopolysaccharide (LPS, 3 μg/ml) to the culture media.

In test [3] the test system is collagen induced arthritis (CIA). Kind of test: Histopathological examination of rear footpad joints of CIA mice. Type of test: in vivo, DBA/1 mice. The following applies: compared with joints of arthritic mice treated with PBS or PBS+30% glycerol. An excerpt: Histopathological examination: The rear footpad joints of 5 arthritic mice that received PBS or PBS+30% glycerol (group 1, negative control), 2 arthritic mice that received anti-mouse-TNFα mAb (group 2, positive control), 3 arthritic mice that received human galectin-8 protein (group 3, positive control), 3 normal healthy mice and 5 arthritic mice that received human galectin-8 variant 1 (group 4) were sent to an accredited pathological laboratory (Patho-Lab, Kiryat Weitzmann, Rehovot) for histopathological examination.
Quantification of the arthritic changes was made subjectively based on degree of articular destruction and following evaluation of the different parameters often observed in arthritic joints. The definition of the parameters quantitated were: • 1. Cellularity within the joint: Cells present couldn't be identified due to loss of cellular morphology (decal), therefore red blood cells and leukocytes were all graded together. • 2. Presence of fibrin in the joint: Fibrin was present in apparently more acute lesions, but the amount of fibrin was proportionally small. • 3. Cartilage loss: Cartilage surfaces were evaluated in the section, slight changes of irregularity of the surface were noted. • 4. […] Synovial cell loss: Identification of synovial cells was difficult due to poor cellular morphology, but in general synovial surfaces were evaluated for integrity. • 6. […]

The test system of test [4] is TNFα. The test can be described thus: TNFα levels in media of NIH 3T3 fibroblasts (negative control cells). It is filed as cell-based, murine. The following applies: LPS 3 μg/ml, 50-2000 ng/ml, 48 hours. The method, then: as §2
Test [5] has as its system synovial fluid cells from RA patients. Kind of test: Apoptosis induction, annexin V/PI flow cytometry, synovial fluid cells. Type of test: cell-based, human. Conditions: inflammatory cells from joints of arthritic patients, lowest concentration 50 ng/ml. The method, then: as §1

B1: galectin-8 variant 1: recombinant galectin-8 variant 1 polypeptide, SEQ ID NO: 6, isoform found in synovial fluid cells of arthritic patients (protein)
chain: MMLSLNNLQNIIYNPDLQSTQASSLELTEISRENVPKSGTPQLPSNRGGDISKIAPRTVYTKSKEARQSHFDLHENTTYELCVKSLPFAARLNTPMGPGRTVVVKGEVNANAKSFNVDLLAGKSKDIALHLNPRLNIKAFVRNSFLQESWGEEERNITSFPFSPGMYFEMIIYCDVREFKVAVNGVHSLEYKHRFKELSSIDTLEINGDIHLLEVRSW
Take B1: the “total cell population in the apoptotic area” value in test [1] (50 ng/ml) was 32.5%; in test [1] (125 ng/ml), 47.5%; in test [1] (250 ng/ml) it was 48.4%; in test [1] (500 ng/ml), 55.5%; in test [1] (750 ng/ml), 58.5%; in test [1] (1000 ng/ml), 77%. In test [1] (2000 ng/ml), the “total cell population in the apoptotic area” value is reported as 77%. In test [1] (increasing concentrations (50-2000 ng/ml)), the “percentage of apoptotic cells” value is recorded as “gradually increased”. For the same molecule, the “TNFα levels in media” value in test [2] (PBLs from RA patients) was “significantly and dose-dependently inhibited”; in test [2] (PBLs from RA patients, listed as galectin-8 var. 1), “decrease”; in test [2] (human fibroblasts from OA patients) it was “significantly and dose-dependently inhibited”; in test [2] (human fibroblasts from OA patients, listed as galectin-8 var. 1) it was “decrease”; in test [2] (synovial fluid cells (SFCs)), “significantly and dose-dependently inhibited”; in test [2] (synovial fluid cells (SFCs), listed as galectin-8 var. 1), “decrease”. Moreover, the “TNFα levels in media” value in test [4] is given as “No effect”; in test [4] (listed as galectin-8 var. 1), “remain unaffected”. Moreover, in test [3], the “recovery of joints (histopathology)” value is “recovered, most of them completely and some at least partly”. Besides, the maximal apoptotic effect entry in test [5] is on record as “approximately 100%”.
